Experimental data: paper PMC2651776 (Nucleic Acids Research, 2009)

T1: MepR (Staphylococcus aureus, UniProt Q5Y812)
T1 sequence (Q5Y812 1-139): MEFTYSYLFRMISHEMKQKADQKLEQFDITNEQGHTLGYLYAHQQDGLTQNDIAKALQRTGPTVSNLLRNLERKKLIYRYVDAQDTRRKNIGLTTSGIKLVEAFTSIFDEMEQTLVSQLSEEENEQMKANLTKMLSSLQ

B1: mepA 44 bp full site (dsDNA)
DNA 1: TTATAGTTAGATATCTAATTGTTAGTAAGCTAATTATTGGAAAA
DNA 2: TTTTCCAATAATTAGCTTACTAACAATTAGATATCTAACTATAA
B2: MepR (natural protein, Staphylococcus aureus)
chain: MEFTYSYLFRMISHEMKQKADQKLEQFDITNEQGHTLGYLYAHQQDGLTQNDIAKALQRTGPTVSNLLRNLERKKLIYRYVDAQDTRRKNIGLTTSGIKLVEAFTSIFDEMEQTLVSQLSEEENEQMKANLTKMLSSLQ
B3: mepA 22 bp (3'-truncated) (dsDNA)
DNA 1: TTATAGTTAGATATCTAATTGT
DNA 2: ACAATTAGATATCTAACTATAA
B4: mepA 26 bp (3'-truncated) (dsDNA)
DNA 1: TTATAGTTAGATATCTAATTGTTAGT
DNA 2: ACTAACAATTAGATATCTAACTATAA
B5: mepR 26 bp site (dsDNA)
DNA 1: TATTTAGTTAGACATCTAACGAATGG
DNA 2: CCATTCGTTAGATGTCTAACTAAATA

Key:
MepR [1] = target: T1, MepR; type: binding
MepR [2] = target: MepR (Staphylococcus aureus, UniProt A0A0H3JPT9 1-139); assay: fluorescence polarization
SEC = target: the molecule itself; assay: SEC

Molecule | Kd (MepR [1]) | Kd (MepR [2]) | further results
CC[n+]1c(-c2ccccc2)c2cc(N)ccc2c2ccc(N)cc21 [ethidium] | 2600 nM | – | –
N=C(N)c1ccc(-c2cc3ccc(C(=N)N)cc3[nH]2)cc1 [DAPI, 4′,6-diamidino-2-phenylindole] | 4500 nM | – | –
CC/N=c1\cc2oc3cc(NCC)c(C)cc3c(-c3ccccc3C(=O)OCC)c-2cc1C [rhodamine 6G] | 62600 nM | – | –
B1 | – | 6.3 nM | –
B2 | – | – | stoichiometry N (SEC): 2
B3 | – | 46.4 nM | –
B4 | – | 15.3 nM | –
B5 | – | 24.3 nM | –
